T1: Soluble human BCMA ECD (AB Biosciences, Catalog no. P011Xp) (human, UniProt Q02223 1-54)
T1 sequence: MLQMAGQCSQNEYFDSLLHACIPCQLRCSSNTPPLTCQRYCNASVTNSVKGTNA

T2: Recombinant mouse BCMA-Fc fusion protein (R&D Systems catalog #593-BC-050) (mouse, UniProt O88472 1-49)
T2 construct: also called mBCMA-Fc; Fc-fusion mouse BCMA; not shown: Fc part of the bought fusion protein
T2 chain: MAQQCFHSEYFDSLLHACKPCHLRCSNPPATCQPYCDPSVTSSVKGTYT


Columns and labels:
[1] = molecular target: T3, Fc-fusion cyno BCMA (in-house; Cat# BCMW6.001) (cyno, UniProt Q02223 1-54 (human entry)); assay: SPR, Fc-BCMA, two-state model, Final KD; Final complex KD, two-state model
T3 construct: also called Fc-BCMA Cy; cyno Fc-BCMA; not shown: Fc part

[2] = molecular target: T1, Soluble human BCMA ECD (AB Biosciences, …); assay: cell-based or functional assay
[3] = molecular target: T3, Fc-fusion cyno BCMA (in-house; Cat# …); assay: SPR, Fc-BCMA, two-state model, step 2
[4] = molecular target: T2, Recombinant mouse BCMA-Fc fusion …; assay: SPR (Biacore T200), biotinylated Fc-BCMA Mouse on a streptavidin chip, BCMB72 as analyte, two-state binding model, Final Complex; column RANGE prints 62.0 - 82.9
Description: (§1) The binding affinities of anti-BCMA×CD3 bispecific antibody (BCMB72) with Fc-fusion BCMA proteins (human, cyno and mouse) were measured by Surface Plasmon Resonance (SPR) using a Biacore T200 system (GE Healthcare, NJ).
(§2) No protein was immobilized on flow-cell 1 and was used as a reference surface. Binding kinetics experiments were performed at 25° C. in running buffer (PBS pH 7.4, 0.005% P20, 3 mM EDTA). BCMB72 was prepared in running buffer starting from 100 nM to 0.16 nM at 5-fold dilutions. These solutions were injected for 5 min (association phase) at 50 μL/min and the dissociation was monitored for 15 min by flowing running buffer. The chip surface was regenerated by short injections of glycine (pH 1.5) and running buffer at 100 μL/min. Binding kinetics analysis of BCMB72 interactions with Fc-BCMA was performed by double referencing of the data by subtracting the curves generated by buffer injection from the reference-subtracted curves for analyte injections. Global kinetics fitting of the sensorgrams was performed using a Two-State binding Model using Biacore T200 Evaluation Software (GE Healthcare, NJ). The binding affinity results from the Two-State binding model for different BCMA species are reported as First Complex (KD1) and Final Complex (KD) (FIG. 5).

[5] = molecular target: T3, Fc-fusion cyno BCMA (in-house; Cat# …); assay: SPR (Biacore T200), biotinylated Fc-BCMA on streptavidin chip
Description: as §1, §2

[6] = molecular target: T2, Recombinant mouse BCMA-Fc fusion …; assay: as above
Description: as §1, §2

[7] = molecular target: T3, Fc-fusion cyno BCMA (in-house; Cat# …); assay: SPR, Fc-BCMA, two-state model, step 1 (koff1); first step (koff1)
[8] = molecular target: T3, Fc-fusion cyno BCMA (in-house; Cat# …); assay: SPR (Biacore T200), biotinylated Fc-BCMA Cyno on a streptavidin chip, BCMB72 as analyte, two-state binding model, Final Complex; column RANGE prints 5.36 - 7.27
Description: as §1, §2

[9] = molecular target: T3, Fc-fusion cyno BCMA (in-house; Cat# …); assay: SPR, Fc-BCMA, two-state model, step 1 (kon1); first step (kon1)
[10] = molecular target: T3, Fc-fusion cyno BCMA (in-house; Cat# …); assay: SPR, Fc-BCMA, two-state model, first complex
[11] = molecular target: T4, cyno BCMA on HEK cells (cyno, UniProt Q02223 1-184 (human entry)); assay: flow cytometry, HEK cells expressing cyno BCMA
T4 construct: also called HEK-expressing cyno BCMA
T4 sequence (Q02223 other isoform, or with tags, fused parts or gaps): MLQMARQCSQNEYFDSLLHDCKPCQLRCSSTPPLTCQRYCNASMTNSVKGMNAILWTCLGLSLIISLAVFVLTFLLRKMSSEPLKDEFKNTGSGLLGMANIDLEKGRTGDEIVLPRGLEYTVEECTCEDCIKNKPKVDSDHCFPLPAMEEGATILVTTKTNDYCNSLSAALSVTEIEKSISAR

Binder | Kd [1] [nM] | Change of EC50 of cytotoxicity on H929 cells in the presence of soluble BCMA ECD [2] [fold] | koff2 [3] [s⁻¹] | kon2 [3] [s⁻¹] | Kd [4] [nM] | fold of average KD compared to human BCMA [5] [fold] | fold of average KD compared to human BCMA [6] [fold] | koff [7] [s⁻¹] | Kd [8] [nM] | kon [9] [M⁻¹ s⁻¹] | KD1 [10] [nM] | binding result [11]
BCMB72 (BCMA×CD3 bispecific antibody, BCMB69 × CD3B219) (bispecific antibody, human IgG4 S228P, lambda, F234A L235A, IgG4 made by Fab arm exchange; first heavy/light pair is the CD3B219 arm, second pair the BCMB69 arm; also called B69 × B219; BCMB72.004) heavy 1: EVQLVESGGGLVQPGGSLRLSCAASGFTFNTYAMNWVRQAPGKGLEWVARIRSKYNNYATYYAASVKGRFTISRDDSKNSLYLQMNSLKTEDTAVYYCARHGNFGNSYVSWFAYWGQGTLVTVSSASTKGPSVFPLAPCSRSTSESTAALGCLVKDYFPEPVTVSWNSGALTSGVHTFPAVLQSSGLYSLSSVVTVPSSSLGTKTYTCNVDHKPSNTKVDKRVESKYGPPCPPCPAPEAAGGPSVFLFPPKPKDTLMISRTPEVTCVVVDVSQEDPEVQFNWYVDGVEVHNAKTKPREEQFNSTYRVVSVLTVLHQDWLNGKEYKCKVSNKGLPSSIEKTISKAKGQPREPQVYTLPPSQEEMTKNQVSLTCLVKGFYPSDIAVEWESNGQPENNYKTTPPVLDSDGSFLLYSKLTVDKSRWQEGNVFSCSVMHEALHNHYTQKSLSLSLGK light 1: QTVVTQEPSLTVSPGGTVTLTCRSSTGAVTTSNYANWVQQKPGQAPRGLIGGTNKRAPGTPARFSGSLLGGKAALTLSGVQPEDEAEYYCALWYSNLWVFGGGTKLTVLGQPKAAPSVTLFPPSSEELQANKATLVCLISDFYPGAVTVAWKADSSPVKAGVETTTPSKQSNNKYAASSYLSLTPEQWKSHRSYSCQVTHEGSTVEKTVAPTECS heavy 2: not shown light 2: SYVLTQPPSVSVAPGQTARITCGGNNIGSKSVHWYQQPPGQAPVVVVYDDSDRPSGIPERFSGSNSGNTATLTISRVEAGDEAVYYCQVWDSSSDHVVFGGGTKLTVLGQPKAAPSVTLFPPSSEELQANKATLVCLISDFYPGAVTVAWKGDSSPVKAGVETTTPSKQSNNKYAASSYLSLTPEQWKSHRSYSCQVTHEGSTVEKTVAPTECS | 1.65 | 2 | 0.000785 | 0.00106 | 72.4 | ~36 | ~402 | 0.00483 | 6.5 | 1.26e+06 | 3.87 | 
BCMB69 (antibody, V domains shown, also called BCBM69; antibody derived from the M2 hybridoma) VH: QLQLQESGPGLVKPSETLSLTCTVSGGSISSGSYFWGWIRQPPGKGLEWIGSIYYSGITYYNPSLKSRVTISVDTSKNQFSLKLSSVTAADTAVYYCARHDGAVAGLFDYWGQGTLVTVSS VL: SYVLTQPPSVSVAPGQTARITCGGNNIGSKSVHWYQQPPGQAPVVVVYDDSDRPSGIPERFSGSNSGNTATLTISRVEAGDEAVYYCQVWDSSSDHVVFGGGTKLTVLG |  |  |  |  |  |  |  |  |  |  |  | binds
